The labels stand for the following.
B1: FAS immobilised for SPR (receptor, human, UniProt P25445 26-173, looked up)
chain: QVTDINSKGLELRKTVTTVETQNLEGLHHDGQFCHKPCPPGERKARDCTVNGDEPDCVPCQEGKEYTDKAHFSSKCRRCRLCDEGHGLEVEINCTRTQNTKCRCKPNFFCNSTVCEHCDPCTKCEHGIIKECTLTSNTKCKEEGSRSN
notes: FAS receptor, the protein immobilised in SPR; also called FAS receptor
B2: TNFSF13 used as analyte in SPR (ligand, human, UniProt O75888 105-250, looked up)
chain: AVLTQKQKKQHSVLHLVPINATSKDDSDVTEVMWQPALRRGRGLQAQGYGVRIQDAGVYLLYSQVLFQDVTFTMGQVVSREGQGRQETLFRCIRSMPSHPDRAYNSCYSAGVFHLHQGDILSVIIPRARAKLNLSPHGTFLGFVKL
notes: TNFSF13 (APRIL), the protein flowed over immobilised FAS in SPR; also called TNSF13; APRIL

Test [1] deals with T1, FAS ligand (FASL) used as analyte in SPR (human, UniProt P48023 103-281).
T1 construct: FAS ligand (FASL), the protein flowed over immobilised FAS in SPR as positive control; also called rFASL; recombinant human FAS ligand
T1 sequence (looked up): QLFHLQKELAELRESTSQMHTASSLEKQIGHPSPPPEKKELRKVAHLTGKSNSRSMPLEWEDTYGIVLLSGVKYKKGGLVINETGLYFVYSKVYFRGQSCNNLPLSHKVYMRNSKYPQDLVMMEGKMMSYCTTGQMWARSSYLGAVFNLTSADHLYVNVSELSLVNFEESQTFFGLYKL
The experiment in a line: SPR; FAS immobilised; TNFSF13 or FASL at various concentrations; sensorgrams fitted to a 1:1 kinetic binding model; n = 3 independent experiments. As to conditions: both partners purified. In general terms: In SPR one partner is held on a chip, and binding of the other changes the refractive index at the surface.

The target of test [2] is B1. Described as above. As to conditions: both partners purified.

In the case of B1, the affinity in test [1], expressed as Kd, was 4.09 nM.

For the molecule B2, in test [2], binding was put at a Kd of 60 nM.

The term Kd denotes a measure of binding affinity in units of concentration. A low value points to a tighter complex.
